In patent US20240287163A1 (Chugai, published 2024):

B1: recombinant human C1r2s2 tetramer (other)
chain 1: EPTMYGEILSPNYPQAYPSEVEKSWDIEVPEGYGIHLYFTHLDIELSENCAYDSVQIISGDTEEGRLCGQRSSNNPHSPIVEEFQVPYNKLQVIFKSDFSNEERFTGFAAYYVATDINECTDFVDVPCSHFCNNFIGGYFCSCPPEYFLHDDMKNCGVNCSGDVFTALIGEIASPNYPKPYPENSRCEYQIRLEKGFQVVVTLRREDFDVEAADSAGNCLDSLVFVAGDRQFGPYCGHGFPGPLNIETKSNALDIIFQTDLTGQKKGWKLRYHGDPMPCPKEDTPNSVWEPAKAKYVFRDVVQITCLDGFEVVEGRVGATSFYSTCQSNGKWSNSKLKCQPVDCGIPESIENGKVEDPESTLFGSVIRYTCEEPYYYMENGGGGEYHCAGNGSWVNEVLGPELPKCVPVCGVPREPFEEKQRIIGGSDADIKNFPWQVFFDNPWAGGALINEYWVLTAAHVVEGNREPTMYVGSTSVQTSRLAKSKMLTPEHVFIHPGWKLLEVPEGRTNFDNDIALVRLKDPVKMGPTVSPICLPGTSSDYNLMDGDLGLISGWGRTEKRDRAVRLKAARLPVAPLRKCKEVKVEKPTADAEAYVFTPNMICAGGEKGMDSCKGDSGGAFAVQDPNDKTKFYAAGLVSWGPQCGTYGLYTRVKNYVDWIMKTMQENSTPRED
chain 2: SIPIPQKLFGEVTSPLFPKPYPNNFETTTVITVPTGYRVKLVFQQFDLEPSEGCFYDYVKISADKKSLGRFCGQLGSPLGNPPGKKEFMSQGNKMLLTFHTDFSNEENGTIMFYKGFLAYYQAVDLDECASRSKLGEEDPQPQCQHLCHNYVGGYFCSCRPGYELQEDRHSCQAECSSELYTEASGYISSLEYPRSYPPDLRCNYSIRVERGLTLHLKFLEPFDIDDHQQVHCPYDQLQIYANGKNIGEFCGKQRPPDLDTSSNAVDLLFFTDESGDSRGWKLRYTTEIIKCPQPKTLDEFTIIQNLQPQYQFRDYFIATCKQGYQLIEGNQVLHSFTAVCQDDGTWHRAMPRCKIKDCGQPRNLPNGDFRYTTTMGVNTYKARIQYYCHEPYYKMQTRAGSRESEQGVYTCTAQGIWKNEQKGEKIPRCLPVCGKPVNPVEQRQQIIGGQKAKMGNFPWQVFTNIHGRGGGALLGDRWILTAAHTLYPKEHEAQSNASLDVFLGHTNVEELMKLGNHPIRRVSVHPDYRQDESYNFEGDIALLELENSVTLGPNLLPICLPDNDTFYDLGLMGYVSGFGVMEEKIAHDLRFVRLPVANPQACENWLRGKNRMDVFSQNMFCAGHPSLKQDACQGDAGGVFAVRDPNTDRWVATGIVSWGIGCSRGYGFYTKVLNYVDWIKKEMEEED
notes: C1s and C1r co-expressed in HEK293 and purified from the supernatant as tetramer; also called hC1r2s2

Tests used:
[1] = biological target: T1, native human C1q (CompTech) (human, UniProt P02745 23-245; P02746 28-253; P02747 29-245); assay: SPR (BIACORE T200, 37 C, pH 7.4), hC1r2s2 captured by immobilised IPN009VH2Vk3-SG1148, hC1q 100 nM then buffer, response normalised to C1r2s2 = 100 RU
T1 construct: the three subunits are from general knowledge; also called hC1q
T1 sequence (P02745 23-245 limits assumed, chain 1 of 3): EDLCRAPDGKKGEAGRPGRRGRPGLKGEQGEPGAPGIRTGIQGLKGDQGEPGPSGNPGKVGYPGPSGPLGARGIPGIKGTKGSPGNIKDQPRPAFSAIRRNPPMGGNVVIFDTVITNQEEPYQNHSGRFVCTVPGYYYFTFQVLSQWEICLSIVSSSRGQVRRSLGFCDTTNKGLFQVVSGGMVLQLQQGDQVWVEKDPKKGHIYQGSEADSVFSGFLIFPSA
T1 sequence (P02746 28-253 limits assumed, chain 2 of 3): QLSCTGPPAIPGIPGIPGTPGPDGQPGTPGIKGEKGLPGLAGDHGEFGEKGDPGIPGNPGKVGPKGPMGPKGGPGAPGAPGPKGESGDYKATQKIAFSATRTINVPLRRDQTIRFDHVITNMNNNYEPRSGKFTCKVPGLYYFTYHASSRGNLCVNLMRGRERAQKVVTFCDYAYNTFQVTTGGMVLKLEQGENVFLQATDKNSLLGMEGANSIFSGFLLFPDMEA
T1 sequence (P02747 29-245 limits assumed, chain 3 of 3): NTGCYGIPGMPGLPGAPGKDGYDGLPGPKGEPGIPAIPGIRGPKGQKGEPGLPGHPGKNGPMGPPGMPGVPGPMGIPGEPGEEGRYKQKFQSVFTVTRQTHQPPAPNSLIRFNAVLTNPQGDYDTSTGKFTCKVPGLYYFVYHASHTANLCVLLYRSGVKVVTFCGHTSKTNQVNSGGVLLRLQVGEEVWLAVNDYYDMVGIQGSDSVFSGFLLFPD
From the text: As the amount of capture, 200 resonance unit (RU) was aimed. […] The sensor surface was regenerated every cycle, using 3 M MgCl₂ (prepared in-house). The sensorgrams were obtained using BIACORE® T200 evaluation software, version 2.0 (Cytiva). […] For comparison of these sensorgrams, binding response of C1r2s2 was normalized as 100 RU.

[2] = biological target: T2, recombinant cynomolgus C1r2s2 tetramer (cynomolgus monkey, limits assumed); assay: SPR (Biacore T200), 37 C, pH 7.4; cyC1r2s2 captured by IPN009, antibody as analyte
T2 construct: also called cyC1r2s2; monkey C1r2s2
T2 chain 1: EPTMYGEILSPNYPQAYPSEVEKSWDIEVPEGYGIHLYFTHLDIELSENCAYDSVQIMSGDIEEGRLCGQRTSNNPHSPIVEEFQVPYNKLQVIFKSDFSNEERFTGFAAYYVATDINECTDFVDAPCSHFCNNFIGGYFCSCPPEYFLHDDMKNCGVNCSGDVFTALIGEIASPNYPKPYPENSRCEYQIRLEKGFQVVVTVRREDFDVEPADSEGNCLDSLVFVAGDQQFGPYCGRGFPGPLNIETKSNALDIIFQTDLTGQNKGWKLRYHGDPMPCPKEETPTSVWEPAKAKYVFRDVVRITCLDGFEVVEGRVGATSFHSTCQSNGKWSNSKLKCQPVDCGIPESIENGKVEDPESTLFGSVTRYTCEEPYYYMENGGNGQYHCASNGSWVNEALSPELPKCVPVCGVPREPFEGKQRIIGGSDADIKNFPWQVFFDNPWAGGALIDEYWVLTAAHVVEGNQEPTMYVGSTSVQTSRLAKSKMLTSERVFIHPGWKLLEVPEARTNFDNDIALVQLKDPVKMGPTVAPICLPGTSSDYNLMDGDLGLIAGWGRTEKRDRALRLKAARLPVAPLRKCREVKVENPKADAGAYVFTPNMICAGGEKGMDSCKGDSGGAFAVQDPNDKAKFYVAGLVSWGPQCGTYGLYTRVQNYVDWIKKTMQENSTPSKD
T2 chain 2: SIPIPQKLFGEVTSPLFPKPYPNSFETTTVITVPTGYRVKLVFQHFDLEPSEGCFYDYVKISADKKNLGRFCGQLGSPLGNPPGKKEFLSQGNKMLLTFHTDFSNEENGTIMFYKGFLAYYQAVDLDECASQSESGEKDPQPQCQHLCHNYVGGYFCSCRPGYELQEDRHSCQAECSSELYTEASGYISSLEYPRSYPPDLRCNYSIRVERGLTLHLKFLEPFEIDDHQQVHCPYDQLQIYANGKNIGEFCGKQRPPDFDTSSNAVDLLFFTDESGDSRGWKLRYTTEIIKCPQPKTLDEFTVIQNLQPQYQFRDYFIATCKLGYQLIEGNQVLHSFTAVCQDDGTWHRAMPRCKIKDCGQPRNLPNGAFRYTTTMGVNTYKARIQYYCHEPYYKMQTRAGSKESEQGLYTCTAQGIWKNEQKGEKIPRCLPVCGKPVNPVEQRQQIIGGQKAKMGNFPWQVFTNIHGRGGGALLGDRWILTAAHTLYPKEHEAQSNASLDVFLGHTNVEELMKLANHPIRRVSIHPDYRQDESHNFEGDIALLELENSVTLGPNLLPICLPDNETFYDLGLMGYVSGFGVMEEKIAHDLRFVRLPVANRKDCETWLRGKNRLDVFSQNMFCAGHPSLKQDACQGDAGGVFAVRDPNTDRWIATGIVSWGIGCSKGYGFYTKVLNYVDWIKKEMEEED
Procedure: (§1) The binding property of each sample at pH7.4 and pH6.0 was determined at 37° C. using BIACORE® T200 instrument (Cytiva). […] 20 mM ACES, 150 mM NaCl, 1.2 mM CaCl₂, 1 mg/mL BSA (not containing IgG), 1 mg/mL CMD, 0.05% Tween® 20, 0.005 w/v % NaN₃, pH7.4 or pH6.0 buffer was used as the running buffer. […] The antibody solution was added thereto at 30 μL/min for 120 seconds, the running buffer was then added at 30 μL/min for 180 seconds, and the dissociation constant (KD) of each antibody for hC1r2s2 and cyC1r2s2 was calculated. […] The sensor surface was regenerated every cycle, using 3 M MgCl2 (prepared in-house). The KD value was calculated using BIACORE® T200 evaluation software version 2.0 (Cytiva). The binding strengths under each pH condition were compared by dividing the KD value at pH6.0 with the KD value at pH7.4.

[3] = biological target: B1; assay: SPR (Biacore T200), 37 C; ratio of KD at pH 6.0 to KD at pH 7.4
Procedure: as §1

[4] = biological target: T2, recombinant cynomolgus C1r2s2 tetramer; assay: as above
Procedure: as §1

[5] = biological target: B1; assay: SPR (Biacore T200), 37 C, pH 6.0; hC1r2s2 captured by IPN009, antibody as analyte
Procedure: as §1

[6] = biological target: B1; assay: SPR (Biacore T200), 37 C, pH 7.4; hC1r2s2 captured by IPN009, antibody as analyte
Procedure: as §1

[7] = biological target: T2, recombinant cynomolgus C1r2s2 tetramer; assay: SPR (Biacore T200), 37 C, pH 6.0; cyC1r2s2 captured by IPN009, antibody as analyte
Procedure: as §1

Binder	binding result [1]	Kd [2] [nM]	KD (pH 6.0)/KD (pH 7.4) [3]	KD (pH 6.0)/KD (pH 7.4) [4]	Kd [5] [nM]	Kd [6] [nM]	Kd [7] [nM]
B1	binds						
COS0637pHv23-G1A3FcgSil+LowpI (antibody, V domains shown, VH 28, VL 51, CH 45, CL 23) VH: QVQLVESGGGVVQPGRSLRLSCAASGFTFSAYAMNWIRQPPGKGLEWIGLIYGTGHEFYASWAEERVTISVDTSKNQFSLKLSSVTAADTAVYYCARGRSKNYNSDFHIWGQGTLVTVSS VL: DIQMTQSPSSLSASVGDRVTITCQAHEILHDKKNLAWYQQKPGQPPKLLIYSASILESGVPSRFSGSGSGTDFTLTISSLQPEDFATYYCHGEFSHGSADLNHFGQGTKVEIKR		0.334	110	139	27.4	0.249	46.3
COS0637pHv25-G1A3FcgSil+LowpI (antibody, V domains shown, VH 32, VL 55, CH 45, CL 23) VH: QVQLVESGGGVVQPGRSLRLSCAASGFTFSAYAMNWIRQPPGKGLEWIGLMYGSGHEFYASWAEERVTISVDTSKNQFSLKLSSVTAADTAVYYCARGRSKNYNSDFHLWGQGTLVTVSS VL: DIQMTQSPSSLSASVGDRVTITCQAHEILHDKKNLAWYQQKPGQPPKLLIYGASQRESGVPSRFSGSGSGTDFTLTISSLQPEDFATYYCHGEFPHSSADLNHFGQGTKVEIKR		0.243	108	276	21.3	0.198	67.1
